Assay results as given in patent publication US20180155451A1 (published 2018).

T1: FcγRIIb extracellular domain with C-terminal His tag (human, UniProt P31994 43-217)
T1 construct: extracellular domain; also called FcgRIIb; 2b; not shown: His tag attached to the C terminus
T1 sequence (looked up): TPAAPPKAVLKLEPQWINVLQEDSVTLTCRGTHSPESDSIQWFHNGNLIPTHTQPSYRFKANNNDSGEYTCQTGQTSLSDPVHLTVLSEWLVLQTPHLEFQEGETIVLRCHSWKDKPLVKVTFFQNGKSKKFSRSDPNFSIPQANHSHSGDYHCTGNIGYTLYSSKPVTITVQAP

T2: FcγRIIb, extracellular domain with C-terminal His tag (human, UniProt P31994 43-217)
T2 construct: extracellular domain; soluble receptor used as Biacore analyte; also called 2b; FcgRIIb
T2 sequence (looked up): T1 sequence (looked up)

T3: FcγRIIa R (FcγRIIa, allotype R, Arg at position 131), extracellular domain with C-terminal His tag (human, UniProt P12318 34-217)
T3 construct: extracellular domain; soluble receptor used as Biacore analyte; also called 2aR; FcgRIIa R
T3 sequence (looked up): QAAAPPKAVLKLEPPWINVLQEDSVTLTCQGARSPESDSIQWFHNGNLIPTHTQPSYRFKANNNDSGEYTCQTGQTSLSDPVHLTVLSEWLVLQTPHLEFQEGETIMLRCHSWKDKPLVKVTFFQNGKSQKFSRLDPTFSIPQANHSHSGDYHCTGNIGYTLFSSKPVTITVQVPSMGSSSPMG

B1: GpH7-A5/GpH7-B3 variant A327_12R/GpL16-k0 (antibody, human IgG1, kappa)
heavy 1: not shown
heavy 2: not shown
light: DIVMTQSPLSLPVTPGEPASISCQASESLVHSNRNTYLHWYLQKPGQSPQLLIYKVSNRFSGVPDRFSGSGSGTDFTLKISRVEAEDVGVYYCSQNTHVPPTFGQGTKVEIERTVAAPSVFIFPPSDEQLKSGTASVVCLLNNFYPREAKVQWKVDNALQSGNSQESVTEQDSKDSTYSLSSTLTLSKADYEKHKVYACEVTHQGLSSPVTKSFNRGEC
notes: position is EU numbering; also called He Ab
B2: GpH7-A5/GpH7-B3 variant L328_11K/GpL16-k0 (antibody, human IgG1, kappa)
heavy 1: not shown
heavy 2: not shown
light: B1 light
notes: as for B1
B3: GpH7-A5/GpH7-B3 variant L328_12R/GpL16-k0 (antibody, human IgG1, kappa)
heavy 1: not shown
heavy 2: not shown
light: B1 light
notes: as for B1
B4: GpH7-A5/GpH7-B3 variant N325_01G/GpL16-k0 (antibody, human IgG1, kappa)
heavy 1: not shown
heavy 2: not shown
light: B1 light
notes: Heterodimerized IgG1; alteration in one H chain only; also called He Ab
B5: GpH7-A5/GpH7-B3 variant A327_04F/GpL16-k0 (antibody, human IgG1, kappa)
heavy 1: not shown
heavy 2: not shown
light: B1 light
notes: as for B4
B6: GpH7-A5/GpH7-B3 variant A327_01G/GpL16-k0 (antibody, human IgG1, kappa)
heavy 1: not shown
heavy 2: not shown
light: B1 light
notes: as for B4
B7: GpH7-A5/GpH7-B3 variant A327_08L/GpL16-k0 (antibody, human IgG1, kappa)
heavy 1: not shown
heavy 2: not shown
light: B1 light
notes: as for B4
B8: GpH7-A5/GpH7-B3 variant A327_03V/GpL16-k0 (antibody, human IgG1, kappa)
heavy 1: not shown
heavy 2: not shown
light: B1 light
notes: as for B4
B9: GpH7-A5/GpH7-B3 variant A327_07I/GpL16-k0 (antibody, human IgG1, kappa)
heavy 1: not shown
heavy 2: not shown
light: B1 light
notes: as for B4
B10: GpH7-A5/GpH7-B3 variant A327_09D/GpL16-k0 (antibody, human IgG1, kappa)
heavy 1: not shown
heavy 2: not shown
light: B1 light
notes: as for B4
B11: GpH7-A5/GpH7-B3 variant Y300_05P/GpL16-k0 (antibody, human IgG1, kappa)
heavy 1: not shown
heavy 2: not shown
light: B1 light
notes: as for B4
B12: GpH7-A5/GpH7-B3 variant S298_05P/GpL16-k0 (antibody, human IgG1, kappa)
heavy 1: not shown
heavy 2: not shown
light: B1 light
notes: as for B4
B13: heterodimerized antibody GpH7-A5/GpH7-B3 variant A327_01G/GpL16-k0 (antibody, human IgG1, kappa)
heavy 1: not shown
heavy 2: not shown
light: B1 light
notes: He Ab: anti-glypican-3 IgG1, alteration in one H chain only; also called He Ab
B14: heterodimerized antibody GpH7-A5/GpH7-B3 variant I332_02A/GpL16-k0 (antibody, human IgG1, kappa)
heavy 1: not shown
heavy 2: not shown
light: B1 light
notes: as for B13
B15: heterodimerized antibody GpH7-A5/GpH7-B3 variant L328_19Q/GpL16-k0 (antibody, human IgG1, kappa)
heavy 1: not shown
heavy 2: not shown
light: B1 light
notes: as for B13
B16: heterodimerized antibody GpH7-A5/GpH7-B3 variant V266_11K/GpL16-k0 (antibody, human IgG1, kappa)
heavy 1: not shown
heavy 2: not shown
light: B1 light
notes: as for B13
B17: heterodimerized antibody GpH7-A5/GpH7-B3 variant Y300_19Q/GpL16-k0 (antibody, human IgG1, kappa)
heavy 1: not shown
heavy 2: not shown
light: B1 light
notes: as for B13
B18: heterodimerized antibody GpH7-A5/GpH7-B3 variant S239_03V/GpL16-k0 (antibody, human IgG1, kappa)
heavy 1: not shown
heavy 2: not shown
light: B1 light
notes: as for B13

Target: T4, FcγRIIIa extracellular domain with C-terminal His tag (human, UniProt P08637 17-208)
T4 construct: extracellular domain; also called FcgRIIIa; 3a; not shown: His tag at the C terminus
Test: SPR (Biacore), antibody captured, FcγR as analyte; He Ab binding / GpH7-A5/GpH7-B3/GpL16-k0 binding x 100
Description: (§1) The heterodimerized antibodies He Abs in which one of the H chains was introduced with an alteration were assayed for their binding activities to each activating FcγR and inhibitory FcγR according to the method described in Example 4. […] The activating FcγRs in FIGS. 26, 27, 28, and 29 are FcγRIa, FcγRIIa (R), FcγRIIa (H), and FcγRIIIa, respectively.
(§2) Analysis of interaction between objective antibody and the FcγR was carried out using Biacore T100 (GE Healthcare). HBS-EP+ (GE Healthcare) was used as the running buffer, and the measurement temperature was set to 25° C. Chips produced by immobilizing the antigen peptide by the amine coupling method to a Series S Sencor Chip CM5 (GE Healthcare), or alternatively, chips produced by allowing preliminarily biotinylated antigen peptides to interact with and immobilize onto a Series S Sensor Chip SA (certified) (GE Healthcare) were used. Antibodies of interest were captured onto an antigen peptide-immobilized chip, and allowed to interact to each FcγR diluted with running buffer. To regenerate and repeatedly use the chip, the antibodies captured on the chip were washed off by reacting 10 mM glycine-HCl, pH 1.5.
T4 sequence (P08637 17-208): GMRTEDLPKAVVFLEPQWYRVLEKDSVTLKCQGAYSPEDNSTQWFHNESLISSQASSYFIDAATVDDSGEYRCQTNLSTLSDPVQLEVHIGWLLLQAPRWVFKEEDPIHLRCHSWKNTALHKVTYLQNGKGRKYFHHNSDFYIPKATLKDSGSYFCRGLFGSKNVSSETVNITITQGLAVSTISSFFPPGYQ

He/Con_3a (IIIa binding) | Binder
19.3 relative, control = 100 | B1
33.5 relative, control = 100 | B2
32.7 relative, control = 100 | B3

Target: T5, FcγRIIIa extracellular domain with C-terminal His tag (human, UniProt P08637 17-208)
T5 construct: extracellular domain; also called FcgRIIIa; 3a; not shown: His tag attached to the C terminus
Test: SPR (Biacore); He/Con_3a divided by He/Con_2b (reference: binding to FcγRIIb)
Description: as §2
(§3) The FcγR-binding activity of each antibody was assessed primarily using as an indicator the FcγR-binding activity and dissociation constant for FcγR.
T5 sequence (P08637 17-208): as above

He_3a/2b (IIIa/IIb) [ratio] | Binder
0.28 | B4
0.72 | B5
0.63 | B6
0.67 | B7
0.48 | B8
0.33 | B9
0.49 | B10
0.38 | B11

Target: T1, FcγRIIb extracellular domain with …
Test: SPR (Biacore), relative binding
Description: as §2, §3

He/Con_2b (IIb binding) | Binder
101 % of GpH7-A5/GpH7-B3/GpL16-k0 (=100) | B4
63.7 % of GpH7-A5/GpH7-B3/GpL16-k0 (=100) | B5
116 % of GpH7-A5/GpH7-B3/GpL16-k0 (=100) | B6
63.1 % of GpH7-A5/GpH7-B3/GpL16-k0 (=100) | B7
94.7 % of GpH7-A5/GpH7-B3/GpL16-k0 (=100) | B8
127 % of GpH7-A5/GpH7-B3/GpL16-k0 (=100) | B9
172 % of GpH7-A5/GpH7-B3/GpL16-k0 (=100) | B10
11.9 % of GpH7-A5/GpH7-B3/GpL16-k0 (=100) | B12

Target: T5, FcγRIIIa extracellular domain with …
Test: SPR (Biacore), relative binding
Description: as §2, §3

He/Con_3a (IIIa binding) | Binder
28 % of GpH7-A5/GpH7-B3/GpL16-k0 (=100) | B4
46.2 % of GpH7-A5/GpH7-B3/GpL16-k0 (=100) | B5
72.4 % of GpH7-A5/GpH7-B3/GpL16-k0 (=100) | B6
42 % of GpH7-A5/GpH7-B3/GpL16-k0 (=100) | B7
45.8 % of GpH7-A5/GpH7-B3/GpL16-k0 (=100) | B8
42.4 % of GpH7-A5/GpH7-B3/GpL16-k0 (=100) | B9
83.7 % of GpH7-A5/GpH7-B3/GpL16-k0 (=100) | B10
2.8 % of GpH7-A5/GpH7-B3/GpL16-k0 (=100) | B11

Target: T2, FcγRIIb, extracellular domain with …
Test: Biacore SPR; binding relative to GpH7-A5/GpH7-B3/GpL16-k0 (=100)
Description: as §1, §2

He/Con_2b (IIb binding) | Binder
116 % of control | B13
103 % of control | B14
105 % of control | B15
1 % of control | B16
108 % of control | B17
108 % of control | B18

Target: T3, FcγRIIa R (FcγRIIa, allotype R, Arg at …)
Test: as above
Description: as §1, §2

He/Con_2aR (IIaR binding) | Binder
98.2 % of control | B13
97.6 % of control | B14
89.3 % of control | B15
99.7 % of control | B17
99.9 % of control | B18

Target: T4, FcγRIIIa extracellular domain with …
Test: SPR (Biacore); ratio of He/Con_3a (FcγRIIIa) to He/Con_2b (FcγRIIb)
Description: as §1, §2

He_3a/2b (IIIa/IIb) [ratio] | Binder
2.15 | B1
4.46 | B2
3.53 | B3
